The values that follow come from the supplement of paper PMC6379048.

pEC50: −log10 of the molar value.

What all share (test): EC50 of free RNA motif oligo competing protein binding to immobilised probe
For one data set, the target named is T1, SF3B5 (UniProt Q9BWJ5).
T1 sequence: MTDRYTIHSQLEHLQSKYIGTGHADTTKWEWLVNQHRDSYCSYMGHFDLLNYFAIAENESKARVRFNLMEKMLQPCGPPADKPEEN
A digest of the protocol:
(§1)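 HEK293-FT lysate (2.5 mg protein/well) was pre-incubated 1 h at 4°C with free RNA oligos (0 nM to 30 μM), then 30 min at 4°C with the same 5′-amino-C6 oligos coupled to NHS-Sepharose beads. Bound proteins were quantified by label-free LC-MS/MS in three biological replicates and two independent experiments, and normalised to the water control. EC50 came from a four-parameter log-logistic fit; Kd is EC50 times a protein-dependent depletion factor.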

The next data set has as its target T2, HMGB2 (UniProt P26583).
T2 sequence: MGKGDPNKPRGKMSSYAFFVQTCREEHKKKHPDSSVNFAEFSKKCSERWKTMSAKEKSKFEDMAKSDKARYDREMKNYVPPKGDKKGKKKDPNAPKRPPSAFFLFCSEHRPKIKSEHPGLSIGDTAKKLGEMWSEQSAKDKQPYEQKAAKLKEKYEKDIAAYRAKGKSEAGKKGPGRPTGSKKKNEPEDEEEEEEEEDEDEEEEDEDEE
In short, it runs like this:
as §1

The target in another data set is RPS14 (UniProt P62263). In short, it runs like this:
as §1

A further data set addresses SRSF6 (UniProt Q13247). In short, it runs like this: as §1
For another data set, the target named is T3, CSTF2T (UniProt Q9H0L4).
T3 sequence: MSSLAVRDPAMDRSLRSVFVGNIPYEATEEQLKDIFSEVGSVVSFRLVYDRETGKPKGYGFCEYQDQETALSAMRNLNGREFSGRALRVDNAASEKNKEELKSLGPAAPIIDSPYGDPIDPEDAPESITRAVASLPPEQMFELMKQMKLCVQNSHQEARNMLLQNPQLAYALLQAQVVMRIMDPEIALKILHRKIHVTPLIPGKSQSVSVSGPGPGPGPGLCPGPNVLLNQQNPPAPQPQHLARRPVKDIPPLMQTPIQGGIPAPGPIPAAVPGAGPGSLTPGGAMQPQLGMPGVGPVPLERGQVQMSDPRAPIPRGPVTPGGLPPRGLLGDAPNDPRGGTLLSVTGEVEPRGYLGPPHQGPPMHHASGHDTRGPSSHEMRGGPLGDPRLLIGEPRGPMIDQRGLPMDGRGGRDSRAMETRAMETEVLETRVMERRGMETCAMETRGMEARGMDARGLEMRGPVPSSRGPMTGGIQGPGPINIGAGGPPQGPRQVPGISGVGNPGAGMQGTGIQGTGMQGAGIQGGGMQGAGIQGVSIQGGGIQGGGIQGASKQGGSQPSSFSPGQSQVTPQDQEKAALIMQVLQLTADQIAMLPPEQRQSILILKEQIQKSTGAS
In short, it runs like this: as §1

For a further data set, the target named is MRPS23 (UniProt Q9Y3D9). In short, it runs like this: as §1
The target in a further data set is T4, TRIM56 (UniProt Q9BRZ2).
T4 sequence: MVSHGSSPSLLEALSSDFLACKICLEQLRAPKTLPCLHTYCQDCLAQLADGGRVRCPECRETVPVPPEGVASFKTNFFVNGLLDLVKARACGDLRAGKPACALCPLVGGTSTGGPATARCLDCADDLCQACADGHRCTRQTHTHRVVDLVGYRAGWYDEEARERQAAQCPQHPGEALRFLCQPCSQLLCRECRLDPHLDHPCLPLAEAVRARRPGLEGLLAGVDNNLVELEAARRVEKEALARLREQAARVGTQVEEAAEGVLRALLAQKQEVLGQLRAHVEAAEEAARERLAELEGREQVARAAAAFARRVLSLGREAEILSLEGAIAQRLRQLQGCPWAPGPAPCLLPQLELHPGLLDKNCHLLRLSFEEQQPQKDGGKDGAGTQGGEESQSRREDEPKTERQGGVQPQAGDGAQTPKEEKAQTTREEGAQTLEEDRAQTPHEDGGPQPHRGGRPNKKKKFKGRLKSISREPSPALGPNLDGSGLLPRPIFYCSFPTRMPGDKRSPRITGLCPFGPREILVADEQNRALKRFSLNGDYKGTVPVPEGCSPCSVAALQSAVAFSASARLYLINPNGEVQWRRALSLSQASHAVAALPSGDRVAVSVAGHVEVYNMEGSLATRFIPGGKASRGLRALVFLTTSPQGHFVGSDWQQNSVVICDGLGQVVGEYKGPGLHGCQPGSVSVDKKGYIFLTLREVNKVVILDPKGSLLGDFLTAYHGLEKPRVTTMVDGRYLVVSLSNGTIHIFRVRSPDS
A digest of the protocol:
as §1

For another data set, the target named is T5, MEX3C (UniProt Q5U5Q3).
T5 sequence: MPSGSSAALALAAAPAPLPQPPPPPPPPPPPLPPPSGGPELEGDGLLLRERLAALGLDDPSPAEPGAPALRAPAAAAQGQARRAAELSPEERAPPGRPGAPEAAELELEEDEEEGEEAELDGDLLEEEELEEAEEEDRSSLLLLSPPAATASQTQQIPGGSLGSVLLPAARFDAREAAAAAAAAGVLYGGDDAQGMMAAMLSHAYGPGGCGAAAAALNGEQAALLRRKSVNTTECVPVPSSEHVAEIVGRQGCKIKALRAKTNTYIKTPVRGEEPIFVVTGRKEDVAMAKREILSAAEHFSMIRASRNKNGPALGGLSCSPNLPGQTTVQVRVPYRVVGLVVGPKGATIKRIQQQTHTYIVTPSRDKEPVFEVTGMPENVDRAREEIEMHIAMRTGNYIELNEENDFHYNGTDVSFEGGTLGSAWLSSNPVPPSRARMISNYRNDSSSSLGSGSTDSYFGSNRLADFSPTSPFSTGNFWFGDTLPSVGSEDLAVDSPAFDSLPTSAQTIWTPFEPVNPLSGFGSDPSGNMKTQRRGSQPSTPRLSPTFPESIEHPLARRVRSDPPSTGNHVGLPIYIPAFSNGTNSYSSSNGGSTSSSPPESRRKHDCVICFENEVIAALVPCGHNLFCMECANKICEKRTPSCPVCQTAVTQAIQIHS
A digest of the protocol:
as §1

Sequence of SRSF6 (Q13247 whole entry, looked up): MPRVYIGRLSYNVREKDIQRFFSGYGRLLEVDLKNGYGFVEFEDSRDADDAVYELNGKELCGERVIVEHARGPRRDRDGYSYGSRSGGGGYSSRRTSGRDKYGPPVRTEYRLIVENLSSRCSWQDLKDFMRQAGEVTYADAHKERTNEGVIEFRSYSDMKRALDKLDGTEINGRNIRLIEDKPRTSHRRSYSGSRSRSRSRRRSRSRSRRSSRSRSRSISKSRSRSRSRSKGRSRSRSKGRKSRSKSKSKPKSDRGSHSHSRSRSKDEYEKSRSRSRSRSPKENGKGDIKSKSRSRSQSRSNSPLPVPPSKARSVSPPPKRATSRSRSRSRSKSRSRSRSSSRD

The pEC50 is the EC50 on a negative log10 scale, so that one unit is a factor of ten. Low readings indicate a large EC50, high ones a small EC50. As to AAUAAA, the pEC50 is 5.92 with SF3B5 and 8.60 with HMGB2.

As for CUGUCCU, the pEC50 with RPS14 was 6.74; in the data set with SRSF6, 5.94.

As for UAUUUAU, the pEC50 with CSTF2T was 6.45; in the data set with MRPS23, 7.40; with TRIM56, 5.46; with MEX3C it was 6.10.
